The numbers were not newly measured in publication PMC5342629, which cites them from elsewhere.

As a reminder, the Kd is the concentration at which binding is half-saturated.

Read-outs that look alike come from different tables or passages of the source.

Series [1] addresses Cdc4 (Saccharomyces cerevisiae) (UniProt P07834).
Series [2] has the same target. The source holds these as a separate data set.
The target is the same in series [3]. This is another data set of the same source.

Chain of UniProt P07834 (P07834 whole entry): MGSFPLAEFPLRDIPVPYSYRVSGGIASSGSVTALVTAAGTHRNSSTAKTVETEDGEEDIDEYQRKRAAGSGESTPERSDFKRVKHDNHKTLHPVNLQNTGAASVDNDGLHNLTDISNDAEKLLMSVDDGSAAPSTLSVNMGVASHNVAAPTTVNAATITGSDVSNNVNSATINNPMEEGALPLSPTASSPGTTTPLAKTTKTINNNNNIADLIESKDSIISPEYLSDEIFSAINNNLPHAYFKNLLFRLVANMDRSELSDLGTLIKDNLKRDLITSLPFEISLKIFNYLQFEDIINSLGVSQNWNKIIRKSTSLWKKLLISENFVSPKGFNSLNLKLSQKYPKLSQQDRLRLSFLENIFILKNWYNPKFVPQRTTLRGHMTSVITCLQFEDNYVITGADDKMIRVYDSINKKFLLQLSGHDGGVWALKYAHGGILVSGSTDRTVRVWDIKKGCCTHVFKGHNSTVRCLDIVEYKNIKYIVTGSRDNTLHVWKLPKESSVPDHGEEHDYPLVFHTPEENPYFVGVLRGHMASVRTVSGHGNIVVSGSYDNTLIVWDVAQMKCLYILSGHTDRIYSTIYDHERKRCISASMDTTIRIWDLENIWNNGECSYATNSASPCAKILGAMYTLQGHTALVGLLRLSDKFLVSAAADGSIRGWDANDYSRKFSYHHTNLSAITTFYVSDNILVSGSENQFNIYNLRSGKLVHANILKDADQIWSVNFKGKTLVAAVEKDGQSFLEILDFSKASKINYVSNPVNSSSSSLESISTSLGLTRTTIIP

On to “Sic1 20-residue peptide (from UniProt P38634)”, for which the Kd in series [1] is 2400 nM.
For Sic1 (from UniProt P38634), the Kd in series [2] is 1000 nM; in series [3], above 50 µM.
